In patent publication CN112430265A (INST FOR VIRAL DISEASE CONTROL AND PREVENTION CHINESE …, dated 2021):

Target: 新型冠状病毒S1蛋白 (纯化) (SARS-CoV-2, UniProt P0DTC2 14-685)

B1: 人源抗新冠病毒中和性抗体nCoV-61 全抗体IgG (antibody, V domains shown)
VH: EVQLVESGGGLVQPGGSLRLSCEASEIIVNRNYMNWVRQAPGKGLEWVSIIYPGGSTFYADSVKGRFTISRDNSKNTMYLQMNSLRAEDTAVYYCARSYGDFYVDFWGQGTLVTVSS
VL: QSVLTQPPSVSAAPGQKVTISCSGSSSNIGNNYVSWYQQLPGTAPKLLIYDNNKRPSGIPDRFSGSKSGTSATLGITGLQTGDEADYYCGTWDSSLSAWVFGGGTKLTVLG
  Kd: 3.33 pM
